Experimental data reported in publication PMC12328718.

What was measured:
SHMT2 WT = molecular target: T1, SHMT2 WT (UniProt P34897); experiment: EMSA; conditions: EMSA: 20 mM HEPES pH 7.4, 150 mM NaCl, 20 ug/ml BSA, 0.1 ug tRNA, RNase inhibitor, 8% glycerol, 25 C, 30 min; 4% native PAGE in 0.5x TBE
T1 sequence: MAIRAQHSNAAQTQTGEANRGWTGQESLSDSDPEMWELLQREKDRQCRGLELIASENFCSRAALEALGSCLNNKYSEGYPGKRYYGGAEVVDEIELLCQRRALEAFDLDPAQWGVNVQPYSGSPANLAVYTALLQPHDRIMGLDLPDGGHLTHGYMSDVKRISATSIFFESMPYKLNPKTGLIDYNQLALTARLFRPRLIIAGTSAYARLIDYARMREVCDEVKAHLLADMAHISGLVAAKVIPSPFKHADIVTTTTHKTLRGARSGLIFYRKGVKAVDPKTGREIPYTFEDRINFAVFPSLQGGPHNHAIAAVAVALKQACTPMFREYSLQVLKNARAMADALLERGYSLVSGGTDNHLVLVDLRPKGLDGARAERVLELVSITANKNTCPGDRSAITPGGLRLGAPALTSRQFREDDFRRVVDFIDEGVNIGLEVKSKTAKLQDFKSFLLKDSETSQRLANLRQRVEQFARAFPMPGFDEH

SHMT2 K281S-R284S = experiment: SEC; Superdex 200 column (16/600), last step of the purification; 20 mM Hepes pH 7.2, 250 mM NaCl, 10% glycerol
[1] = molecular target: Serine hydroxymethyltransferase 2 (SHMT2) wild type; experiment: as above

## GGGAUAAAGAAAAAAGCGGUGAGUGGGCGAACUACAAUUCCCAAAAGGCCACAAAGGGGCCACCACUACGCAUGCGUAGAUCCCUCCCGUUAGCUUUGGCGCCUCAGCGAGCUCUUCUCGCGCAUGCGUUCUCCGAACGGUCUUCUUCCGACAGCUUGCUGCCCUAGACCAGAGUUGGUGGCUGGACCUCCUGCGACUUCCGAGUUGCG [UTR2 RNA]
SHMT2 WT
  Kd: 560 nM

## SHMT2 K281S-R284S (enzyme)
SHMT2 K281S-R284S
  stoichiometry N: 4

## Serine hydroxymethyltransferase 2 (SHMT2) wild type (enzyme)
[1]
  stoichiometry N: 4
